Experimental data taken from US20190016790A1 (MEDICINAL BIOCONVERGENCE RESEARCH CENTER, published 2019).

Tests used:
[1] = target: T1, recombinant PICP protein (procollagen type I C-terminal propeptide), heterotrimer of two PICP α1 chains and … (human, UniProt P02452 1219-1464; P08123 1120-1366); test: indirect ELISA, PICP coated at 2 ug/ml, anti-HA-HRP
T1 construct: Biotinylated for the yeast Fab selection; also called recombinant PICP antigen; PIPC; not shown: 8xHis tag conjugated to the N-terminus of the α1 chain; c-Myc tag conjugated to the N-terminus of the α2 chain

[2] = target: T1, recombinant PICP protein (procollagen …); test: yeast surface Fab display, MACS and FACS with biotinylated PICP
Method: A method of selecting clones specifically binding to PICP proteins from the yeast Fab library are as follows: Antigen protein PICP and similar protein PIIICP were prepared with purity of 99% or higher by the method of the present invention. The PICP proteins were conjugated to biotin using a kit (EZ-LINKTMSulfo-NHS-LC-Biotinylation kit, Pierce Inc., USA). Thereafter, a procedure of screening the constructed libraries using MACS and FACS and analyzing the induced pool was repeated. Through this, the expression level of antibody Fab and the binding affinity of biotinylated PICP can be analyzed.
The biotinylated PICP (500 nM) was conjugated to Fab library expressed on the yeast cell surface at 25° C. for 1 hour. The Fab library incubated with PICP was conjugated with streptavidin-microbead (Miltenyi Biotec Inc., Germany) at 4° C. for 10 minutes, and then clones conjugated with the biotinylated PICP were selected using magnetic-activated cell sorting (MACS). […] Thereafter, FACS procedure was twice repeated using biotinylated PICP with concentrations of 250 nM and 100 nM. […]

[3] = target: T1, recombinant PICP protein (procollagen …); test: SPR, Biacore 2000, PICP immobilized (185 RU), IgG 6.25-100 nM
Text: Specific experiment conditions are as follows.
The affinity was obtained from kinetic rate constants (ka and kd) and equilibrium dissociation constants (KD) using BIA evaluation ver. 3.2 software.

[4] = target: T2, recombinant procollagen type III C-terminal propeptide (PIIICP), His-tagged (UniProt P02461 1222-1466); test: sandwich ELISA, 2D IgG coated at 16 ug/ml as capture antibody, PIIICP titrated, rabbit anti-PICP antibody and goat anti-rabbit IgG-HRP for detection
T2 construct: domain: C-terminal propeptide; Made in HEK293F cells in the same way as PICP; also called comparative antigen; not shown: His tag conjugated to the PIIICP protein
T2 sequence (looked up): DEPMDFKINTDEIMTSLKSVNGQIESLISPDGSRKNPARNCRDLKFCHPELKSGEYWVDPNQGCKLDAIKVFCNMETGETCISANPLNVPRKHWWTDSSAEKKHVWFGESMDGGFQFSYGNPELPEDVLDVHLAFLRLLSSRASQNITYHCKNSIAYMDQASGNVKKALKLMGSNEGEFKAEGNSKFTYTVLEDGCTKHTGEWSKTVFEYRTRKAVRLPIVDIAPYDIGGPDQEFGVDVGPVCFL

[5] = target: T2, recombinant procollagen type III …; test: indirect ELISA, PIIICP coated at 2 ug/ml, anti-human IgG-HRP
Method: PICP and PIIICP antigens prepared in <Example 1> were immobilized at a concentration of 2 ug/ml on microtiter plates at room temperature for 1 hour, and blocked with 1×PBST containing 2% skim milk at room temperature for 1 hour. 2D IgG and 4G IgG were serially diluted within a range of 15.625-1000 ng/ml, and added at 100 μl per well to the blocked plates, followed by incubation at room temperature for 1 hour. Human IgG-HRP antibodies (Millipore, 1:2,000) as secondary antibodies were added at 10 μl per well, followed by incubation at room temperature for 1 hour. The incubated microtiter plates were washed three or four times with 1×PBST, and then TMB solution was added at 50 μl per well to conduct a color development reaction at room temperature for 5-10 minutes. The color development reaction was stopped using H₂SO₄ (1 M), and then the absorbance was read at 450 nm using ELISA reader.

[6] = target: T3, recombinant PICP α2 chain (c-Myc tag at the N-terminus) (human, UniProt P08123 1120-1366); test: Western blot (anti-His, anti-c-Myc) of Ni/NTA-purified recombinant PICP, non-reducing and reducing SDS-PAGE
T3 construct: Co-expressed with the α1 chain in HEK293F cells; also called recombinant procollagen α2 chain; not shown: c-Myc tag at the N-terminus
T3 sequence: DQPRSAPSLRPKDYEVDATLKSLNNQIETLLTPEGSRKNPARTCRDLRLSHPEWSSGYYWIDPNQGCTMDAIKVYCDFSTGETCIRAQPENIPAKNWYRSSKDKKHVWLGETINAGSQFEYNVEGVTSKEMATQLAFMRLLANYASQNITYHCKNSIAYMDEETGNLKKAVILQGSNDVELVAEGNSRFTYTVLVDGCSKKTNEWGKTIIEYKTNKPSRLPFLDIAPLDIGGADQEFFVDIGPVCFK
Method: The pSecTag2A-PICP α1 vector and the pSecTag2A-PICP α2 vector were mixed at a molar ratio of 2:1, and co-transfected into HEK293F cells. The co-transfected cells were cultured for 7 days, and culture supernatants were harvested, and the proteins were isolated and purified by the same method as in example <1-2>. PIIICP protein was also expressed, isolated, and purified by the same method. The sizes and purities of the purified proteins were analyzed using SDS-PAGE and western blotting (anti-His tag, anti-c-Myc tag) in reducing or non-reducing conditions.

[7] = target: T1, recombinant PICP protein (procollagen …); test: sandwich ELISA, IgG coated as capture antibody, PICP titrated, polyclonal PICP antibody and anti-rabbit-HRP for detection
Method: The binding specificity to PICP by IgG fragment having VH and VL of clones 1 and 2 (referred to as clone IgG and clone 2 IgG) was investigated by sandwich ELISA (FIG. 9).
2D, 4G, clone 1, clone 2 IgG antibodies as capture antibodies were coated on the microtiter plates, and PICP and PIIICP as antigens were added to each well (100 μl/well) at different concentrations, followed by incubation for 1 hour. After washing with 1×PBST (0.05 Tween 20), detection antibodies (polyclonal PICP antibodies) were diluted with 1×PBST, and added in 100 μl for each, followed by incubation for 1 hour. After washing with 1×PBST, rabbit-HRP (Millipore) antibodies were diluted with 1×PBST, and added in 100 μl for each, followed by incubation for 1 hour. After washing with 1×PBST, TMB solution was added to each well (50 μl/well) to investigate a color development reaction, and then the reaction was stopped by addition of 50 μl of 2N stop solution (H₂SO₄). The absorbance was read at a wavelength of 450 nm using ELISA reader (reference 620 nm).

B1: 2D scFv (scFv)
chain: EVQLLESGGGLVQPGGSLRLSCAASGFTFSSYYMSWVRQAPGKGLEWVSGISPGSGSKYYADSVKGRFTISRDNSKNTLYLQMNSLRAEDTAVYYCARATVPCKGPACYSAYGMDVWGQGTLVTVSSGGGGSGGGGSGGGGSQSVLTQPPSAPGTPGQRVTISCSGSSSNIGNNAVNWYQQLPGTAPKLLIYSNSHRPSGVPDRFSGSKSGTSASLAISGLRSEDEADYYCGSWDASLNGYVFGGGTKLTVLG
- EC50 (read off the curve) [1]: ~0.3 µg/mL

B2: clone 1 Fab (Fab, V domains shown)
VH: EVQLVESGGGLVQPGGSLRLSCAASGFTFSYYWMSWVRQAPGKGLEWVSTISYGGGGKYYADSVKGRFTISRDNSKNTLYLQMNSLRAEDTAVYYCVRSYGAIPPNTIDYWGQGTLVTVSS
VL: DIQMTQSPSSLSASVGDRVTITCRASQGISSDLAWYQQKPGKAPKLLIYAASSLQSGVPSRFSGSGSGTDFTLTISSLQPEDFATYYCQQPYSTPSTFGQGTKVEIK
- binding result [2]: binds

B3: 4G scFv (scFv)
chain: EVQLLESGGGLVQPGGSLRLSCAASGFTFSNYYMSWVRQAPGKGLEWVSLISSGNGNKYYADSVKGRFTISRDNSKNTLYLQMNSLRAEDTAVYYCARGSRRCSGAPCYSAYGMDVWGQGTLVTVSSGGGGSGGGGSGGGGSQSVLTQPPSASGTPGQRVTISCTGSSSNIGNNSVTWYQQLPGTAPKLLIYANSQRPSGVPDRFSGSKSGTSASLAISGLRSEDEADYYCGAWDDSLNAYVFGGGTKLTVLG
- EC50 (read off the curve) [1]: ~0.1 µg/mL

B4: 2D IgG (antibody, V domains shown)
VH: EVQLLESGGGLVQPGGSLRLSCAASGFTFSSYYMSWVRQAPGKGLEWVSGISPGSGSKYYADSVKGRFTISRDNSKNTLYLQMNSLRAEDTAVYYCARATVPCKGPACYSAYGMDVWGQGTLVTVSS
VL: QSVLTQPPSAPGTPGQRVTISCSGSSSNIGNNAVNWYQQLPGTAPKLLIYSNSHRPSGVPDRFSGSKSGTSASLAISGLRSEDEADYYCGSWDASLNGYVFGGGTKLTVLG
notes: IgG made from 2D scFv VH and VL in pcDNA3.4 and expressed in 293F cells; Detected with human IgG-HRP; also called IgG containing the variable regions of clone 2D
- Kd [3]: 11.6 nM
- koff [3]: 0.00276 s⁻¹
- kon [3]: 237000 M⁻¹ s⁻¹
- binding result [4]: no binding (tested: 100 ng/ml)

B5: 4G IgG (antibody, V domains shown)
VH: EVQLLESGGGLVQPGGSLRLSCAASGFTFSNYYMSWVRQAPGKGLEWVSLISSGNGNKYYADSVKGRFTISRDNSKNTLYLQMNSLRAEDTAVYYCARGSRRCSGAPCYSAYGMDVWGQGTLVTVSS
VL: QSVLTQPPSASGTPGQRVTISCTGSSSNIGNNSVTWYQQLPGTAPKLLIYANSQRPSGVPDRFSGSKSGTSASLAISGLRSEDEADYYCGAWDDSLNAYVFGGGTKLTVLG
notes: IgG made from 4G scFv VH and VL in pcDNA3.4 and expressed in 293F cells; Detected with human IgG-HRP; also called IgG containing the variable regions of clone 4G
- Kd [3]: 16.8 nM
- koff [3]: 0.00319 s⁻¹
- kon [3]: 190000 M⁻¹ s⁻¹
- binding result [5]: no binding (tested: 1000 ng/ml)

B6: recombinant PICP α1 chain (8xHis tag at the N-terminus) (other)
chain: DDANVVRDRDLEVDTTLKSLSQQIENIRSPEGSRKNPARTCRDLKMCHSDWKSGEYWIDPNQGCNLDAIKVFCNMETGETCVYPTQPSVAQKNWYISKNPKDKRHVWFGESMTDGFQFEYGGQGSDPADVAIQLTFLRLMSTEASQNITYHCKNSVAYMDQQTGNLKKALLLQGSNEIEIRAEGNSRFTYSVTVDGCTSHTGAWGKTVIEYKTTKTSRLPIIDVAPLDVGAPDQEFGFDVGPVCFL
notes: Co-expressed with the α2 chain in HEK293F cells; also called recombinant procollagen α1 chain; not shown: 8xHis tag at the N-terminus
- binding result [6]: binds

B7: clone 2 IgG (antibody, V domains shown)
VH: EVQLVESGGGLVQPGGSLRLSCAASGFTFSSYWMSWVRQAPGKGLEWVSVISYDGGNKYYADSVKGRFTISRDNSKNTLYLQMNSLRAEDTAVYYCAKWANDHNSDLNFDYWGQGTLVTVSS
VL: DIQMTQSPSSLSASVGDRVTITCRASQGISTDLGWYQQKPGKAPKLLIYAASSLESGVPSRFSGSGSGTDFTLTISSLQPEDFATYYCQQHDSYPTTFGQGTKVEIKR
notes: Chimeric: human Fab VH and VL of yeast clone 2 on mouse IgG2a heavy chain constant domains and mouse kappa light chain
- binding result [7]: binds

B8: clone 2 Fab (Fab, V domains shown)
VH: EVQLVESGGGLVQPGGSLRLSCAASGFTFSSYWMSWVRQAPGKGLEWVSVISYDGGNKYYADSVKGRFTISRDNSKNTLYLQMNSLRAEDTAVYYCAKWANDHNSDLNFDYWGQGTLVTVSS
VL: DIQMTQSPSSLSASVGDRVTITCRASQGISTDLGWYQQKPGKAPKLLIYAASSLESGVPSRFSGSGSGTDFTLTISSLQPEDFATYYCQQHDSYPTTFGQGTKVEIK
- binding result [2]: binds

B9: clone 1 IgG (antibody, V domains shown)
VH: EVQLVESGGGLVQPGGSLRLSCAASGFTFSYYWMSWVRQAPGKGLEWVSTISYGGGGKYYADSVKGRFTISRDNSKNTLYLQMNSLRAEDTAVYYCVRSYGAIPPNTIDYWGQGTLVTVSS
VL: DIQMTQSPSSLSASVGDRVTITCRASQGISSDLAWYQQKPGKAPKLLIYAASSLQSGVPSRFSGSGSGTDFTLTISSLQPEDFATYYCQQPYSTPSTFGQGTKVEIKR
notes: Chimeric: human Fab VH and VL of yeast clone 1 on mouse IgG2a heavy chain constant domains and mouse kappa light chain; also called clone IgG
- binding result [7]: binds
